Test results published in publication PMC7473855, “An alpaca nanobody neutralizes SARS-CoV-2 by blocking receptor interaction” (Nature Communications, 2020).
Where “and” joins values, the source holds several entries; their conditions need not be identical. Identical values can stand only once.

B1: Ty1 nanobody (VHH)
VHH: QVQLVETGGGLVQPGGSLRLSCAASGFTFSSVYMNWVRQAPGKGPEWVSRISPNSGNIGYTDSVKGRFTISRDNAKNTLYLQMNNLKPEDTALYYCAIGLNLSSSSVRGQGTQVTVSS
B2: Ty1 nanobody, biotinylated on the C-terminus (VHH)
VHH: B1 VHH
modifications: biotin on the C-terminus (GGGK-biotin joined by Sortase A)
notes: not shown: Sortase recognition site (LPETG), C-terminal, kept

Experiments:
[1] = biological target: T1, SARS-CoV-2 spike receptor-binding domain (RBD) (SARS-CoV-2, UniProt P0DTC2 319-541); assay: ITC; settings: both partners purified
T1 construct: also called monomeric RBD

[2] = biological target: T1, SARS-CoV-2 spike receptor-binding …; assay: BLI; settings: both partners purified

Row | Binder | Kd [1] [nM] | dH [1] [kcal/mol] | Kd [2]
1 | B1 | 9 | ~-10 | 
2 | B2 |  |  | 8 nM and 13 nM
